{
  "source": "paper PMC5584140",
  "about": "(The Journal of Cell Biology, 2017)",
  "biological_target": "T1, µ1 MHD carrying a C-terminal Avitag, WT (UniProt Q9BXS5 158-423)",
  "T1 sequence (looked up)": "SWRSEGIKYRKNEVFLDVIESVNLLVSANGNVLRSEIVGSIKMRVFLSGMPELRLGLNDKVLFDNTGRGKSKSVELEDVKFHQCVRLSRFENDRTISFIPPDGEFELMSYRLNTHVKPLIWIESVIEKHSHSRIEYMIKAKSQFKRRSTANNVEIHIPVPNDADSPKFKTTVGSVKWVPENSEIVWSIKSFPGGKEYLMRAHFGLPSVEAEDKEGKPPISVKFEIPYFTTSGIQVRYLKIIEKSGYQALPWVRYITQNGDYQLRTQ",
  "assay": "SPR",
  "data": [
    {"binder": "CKVTRRPKASDYQRL", "note": "[TGN38 peptide carrying a canonical YXXΦ signal]", "values": [
      {"measurement": "Kd", "result": "~20", "unit": "µM"}
    ]}
  ]
}
